We go through one substance from paper doi:10.1101/2020.05.28.119206.

This experiment has as its target recombinant medaka ZI-3 precursor (Y74-V420) (medaka). Briefly: SEC-MALS. Background: SEC sorts molecules by how far they enter the pores of the column.

In general, stoichiometry N refers to the number of molecules, sites or subunits per partner or assembly.

In the case of “recombinant medaka ZI-3 precursor (Y74-V420) (domain or fragment)”, the stoichiometry N was 2.
